Measurements: article PMC10132759

Biological target: GAS7b-Avitag, biotinylated (mouse) (UniProt Q60780)
Test: BLI; BLItz; 0.1 μM biotinylated Avi-tagged GAS7b, Nck or WISH captured on streptavidin (SAX) biosensors; 0.25 μM WASP or its mutants as analyte; 10 mM tris-HCl pH 7.5, 150 mM NaCl, 1 mM EDTA; local fit to a 1:1 model, Kd = Koff/Kon; n = 3

Sequence of N-WASP without a tag (Q95107 whole entry): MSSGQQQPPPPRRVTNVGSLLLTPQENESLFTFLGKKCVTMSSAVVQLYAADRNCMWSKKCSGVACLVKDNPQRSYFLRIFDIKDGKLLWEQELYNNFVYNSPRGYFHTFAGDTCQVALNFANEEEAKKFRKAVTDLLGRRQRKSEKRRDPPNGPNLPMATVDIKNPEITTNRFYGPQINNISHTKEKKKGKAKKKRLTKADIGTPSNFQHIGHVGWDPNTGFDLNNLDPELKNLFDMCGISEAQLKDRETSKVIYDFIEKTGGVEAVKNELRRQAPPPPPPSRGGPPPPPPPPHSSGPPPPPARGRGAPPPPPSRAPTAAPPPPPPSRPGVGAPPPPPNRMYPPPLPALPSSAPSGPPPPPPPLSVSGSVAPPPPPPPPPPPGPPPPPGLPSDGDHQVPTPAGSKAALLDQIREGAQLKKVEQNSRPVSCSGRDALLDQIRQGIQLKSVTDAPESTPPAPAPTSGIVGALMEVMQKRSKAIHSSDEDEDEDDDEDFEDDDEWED

Substance	Kd [nM]
WASP P359T (FLAG tag) (from UniProt P42768 1-502) (natural protein)	6.89
N-WASP without a tag (from UniProt Q95107 1-505) (natural protein)	4.23
WASP (FLAG tag) (from UniProt P42768 1-502) (natural protein)	4.11

Further substances by falling Kd, results first:

Kd [nM]	Substance
15	WASP P373S (FLAG tag) (from UniProt P42768 1-502) (natural protein)
7.13	WASP S339Y (FLAG tag) (from UniProt P42768 1-502) (natural protein)
